Experimental data reported in US20180214569A1 (Regeneron, published 2018).
Positions count from the first letter of the chain named.

B1: H1H15378P (antibody, V domains shown)
VH: EVQLVESGGGLVQPGGSLRLSCAASGFTFNNYEMNWVRQAPGKGLEWVSFISSSGSTIDYAVSVKGRFTISRDNAKNSLYLQMNSLRPGDTAVYYCARARLDFYYYGMDVWGQGTTVTVSS
VL: DIQMTQSPSSLSASVGDRVTITCRASQGISNYLAWFQQKPGKAPKSLIYATSTLQSGVPSKFSGSGSGTDFTLTISSLQPEDFATYYCQQYNSFPLTFGGGTKVEIK
B2: H1H15379P (antibody, V domains shown)
VH: EVQLVESGGGLVQPGWSLRLSCAASGFTFDDYAMHWVRQAPGKGLEWVSGISWNSDDIDYTDSVKGRFTVSRDNAKNSLYLQMNSLRADDTAFYYCVRQRVRGYYYFGMDVWGQGTTVTVSS
VL: B1 VL with K45M, T51A, T53S, F94Y, L96F, G100P, E105D
B3: H1H15408P (antibody, V domains shown)
VH: EVQLVESGGGLVQPGGSLRLSCAASGFTFSRYDMSWVRQAPGKGLEWVSAISYSGDSTYYADSVQGRFTISRDNSKNTLYLQMNSLRAEDTALYHCAKDNGYSGTYYYYYGMDVWGQGTTVTVSS
VL: B1 VL with S46F, T51A, T53S, F94Y, L96Y, G100Q, V104L
B4: H1H15405P (antibody, V domains shown)
VH: EVQLVESGGGLVQPGGSLRLSCGASGFTFSYYWMTWVRQAPGKGLEWVANINQDGSEKFYVDSVRGRFTISRDNAKKSLYLQMNSLRAEDTAVYYCARDGYCSSIGCYNLYGMDVWGQGTTVTVSS
VL: DIQMTQSPSSLSASVGDRVTITCRASQNINKYLNWYQQKPGQAPKLLIYTTSSLQSGVPSRFSGSGSGTDFTLTISSLQPEDFATYSCQQSYNSPLTFGGGTKVEIK
B5: H1H15399P (antibody, V domains shown)
VH: EVQLVESGGGLVQPGGSLRLSCAASGFTFSSSAMSWVRQAPGKGLEWVSTLNVGADSTFYAGSVRGRFTISRDNSKNTLFLQMNSLRAEDTAVYYCAKDWGGIPYYYYYYGMDVWGQGTTVTVSS
VL: DIQLTQSPSFLSASVGDRVTITCWASQGISSYLAWYQQKPGKAPNLLIYTASTLQSGVPSRFSGSGSGTEFTLTISSLQPEDFATYYCQQLNSYPLTFGGGTKVEIK
B6: H1H15380P (antibody, V domains shown)
VH: QVQLQESGPGLVKPSETLSLMCTVSGGSINNYYWSWIRQPPGKGLEWIGYIYNGGITKYNPSLKSRVTISVDTSKSQISLKLNSVTAADTAFYYCTKEQLERREGHIWFDPWGQGTLVTVSS
VL: DIQMTQSPSSLSASVGDRVTITCRASQTINNYLNWYHQKPGKAPKLLIYGTSSLQSGVPSRFSGSGSGTEFALTISSLQPEDFATYYCQQSSSTPYTFGQGTKLEIK
B7: H1H15404P (antibody, V domains shown)
VH: QVQLQESGPGLVKPSETLSLTCTVSGGSISGYFWGWIRQTPGKGLEWIGYIFYSGSTHYNPSFKSRVTMSVDTSKNQFALKLRSVTAADTAKYYCSRQREYYGSGNYRYFGMDVWGQGTTVTVSS
VL: AIQMTQSPSSLSASVGERVTITCRASQDIRDDLGWYQQRPGKAPNLLIYAASSLHSGVPSRFSGSGSGTDFTLTISSLQPEDFATYYCLQDYNYPWTFGQGTKVEIK
B8: H1H15410P (antibody, V domains shown)
VH: QVQLQESGPGLVKPSETLSLTCTVSGGSISGYFWGWVRQPPGKGLEWIGYIFYSGSTNYNPSLKSRITLSVDTSKNQFSLKLSSVTAADTAIYYCARHREYYGSGNYRYYALDVWGQGTTVTVSS
VL: B7 VL with E17D, D28G, R39K, N45K, H55Q, Y94F, W96L
B9: H1H15414P (antibody, V domains shown)
VH: EVQLVESGGDLVQPGGSLRLSCAASGFTFSSFEMNWVRQAPGKGLEWVSYISSSGSTIYYADSVKDRFTVSRDKDKNSLYLQMNSLRAEDTAVYYCARGSWNQPYFDYWGQGTLVTVSS
VL: DIQMTQSPSTLSASVGDRVTITCRASQSISSWLAWYQLKPGKAPKVLIYKASSLESGVPSRFSGSGSGTEFTLTINSLQPDDFATYYCQQYNSWTFGQGTKVEIK
B10: H1H15418P2 (antibody, V domains shown)
VH: QVQLVESGGGLVRPGGSLRLSCEASGFTFNEHYMSWIRQAPGKGLEWVAFISSGGSIIYYADSVKGRFTISRDSAKNSLYLQMNSLRPEDTAIYYCAREPFGGIIVFDYWGQGTLVTVSS
VL: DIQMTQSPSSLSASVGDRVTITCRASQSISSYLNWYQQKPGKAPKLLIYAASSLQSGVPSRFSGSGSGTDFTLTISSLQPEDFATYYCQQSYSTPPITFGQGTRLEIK
B11: H1H15377P (antibody, V domains shown)
VH: EVQLVESGGGLVQPGGSLRLSCAASGFTFTSYEMNWVRQAPGKGLEWISYISSGGDTKYYADSVRGRFTISRDNAKNSLYLQMNSLRAEDTALYYCARDVLNWVFDYWGRGTLVTVSS
VL: DIQMTQSPSSLSASVGDRVTITCRASQSIGKYLNWYRQSPGKAPKLLIYATSSLQSGVPSSFSGSGSGTDFTLTISSLQPEDFATYYCQQGFRTPFTFGPGTKVDIK
B12: H1H15375P (antibody, V domains shown)
VH: QVQLVESGGGGVQPGRSLRLSCEASGFTFSDYGMQWVRQAPGKGLEWVAVIWDDGRKKYYADSVKGRFTVSRDNSKNTLYLEINSLRVEDTAVYYCAREGSSSSGRYFLYGMDVWGQGTTVTVSS
VL: DIQMTQSPSSLSASVGDRVTITCRASQRISSYLNWYQQKLGKAPKLLISVASSLQSGVPSRFSGSGSGTDFTLTISSLQPEDFGIYYCQQSYNTPPWTFGQGTKVEIK

The binders below were run against T1, HlgB (GS) (Staphylococcus aureus, UniProt P0A077 26-325) (assay: ELISA, plate coated with toxin component).
T1 sequence: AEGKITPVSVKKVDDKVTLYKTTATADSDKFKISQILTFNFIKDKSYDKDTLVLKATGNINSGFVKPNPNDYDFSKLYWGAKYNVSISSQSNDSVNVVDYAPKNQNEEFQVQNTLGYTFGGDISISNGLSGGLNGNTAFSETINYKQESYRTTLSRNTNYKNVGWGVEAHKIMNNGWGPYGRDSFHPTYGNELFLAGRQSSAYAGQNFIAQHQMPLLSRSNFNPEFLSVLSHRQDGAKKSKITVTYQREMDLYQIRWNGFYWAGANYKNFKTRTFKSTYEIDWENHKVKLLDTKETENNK
Protocol: (§1) MaxiSorp microtiter plates were coated overnight with 10 μg/mL of individual F-components of S. aureus bicomponent toxins per well. Recombinant toxin components were either obtained from IBT BioServices (Gaithersburg, Md.) or generated by GenScript (Piscataway Township, N.J.). […] Wells were washed 3 times and then incubated with 100 ng/mL anti-human HRP secondary antibody per well for one hour at 25° C. 100 μL of SuperSignal ELISA Pico Chemiluminescent Substrate, (ThermoFisher Scientific) was added to the wells and signal was detected (Victor X3 plate reader, Perkin Elmer). Luminescence values were analyzed by a three-parameter logistic equation over an 11-point response curve (GraphPad Prism). Isotype-matched irrelevant control antibody and S. aureus delta toxin were included as controls.

Does B1 bind?
Result: no binding (tested: titration 50 uM-100 pM)

Does B2 bind?
Result: no binding (tested: titration 50 uM-100 pM)

Does B3 bind?
Result: no binding (tested: titration 50 uM-100 pM)

Does B4 bind?
Result: no binding (tested: titration 50 uM-100 pM)

Does B5 bind?
Result: no binding (tested: titration 50 uM-100 pM)

Does B6 bind?
Result: no binding (tested: titration 50 uM-100 pM)

Does B7 bind?
Result: no binding (tested: titration 50 uM-100 pM)

Does B8 bind?
Result: no binding (tested: titration 50 uM-100 pM)

Does B9 bind?
Result: no binding (tested: titration 50 uM-100 pM)

Does B10 bind?
Result: no binding (tested: titration 50 uM-100 pM)

Does B11 bind?
Result: no binding (tested: titration 50 uM-100 pM)

What follows are binders tested against T2, LukD (GS) (Staphylococcus aureus, UniProt O54082 27-327) (assay: ELISA, plate coated with toxin component).
T2 sequence: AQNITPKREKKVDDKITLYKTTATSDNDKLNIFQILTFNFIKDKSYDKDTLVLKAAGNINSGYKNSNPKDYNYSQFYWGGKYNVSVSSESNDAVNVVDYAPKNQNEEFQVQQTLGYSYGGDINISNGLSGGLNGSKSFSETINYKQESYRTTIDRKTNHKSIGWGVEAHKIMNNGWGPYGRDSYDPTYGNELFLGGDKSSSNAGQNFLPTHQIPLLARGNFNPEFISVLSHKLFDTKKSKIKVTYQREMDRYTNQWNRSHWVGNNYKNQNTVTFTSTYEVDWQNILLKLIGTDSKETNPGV
Protocol: as §1

Does B1 bind?
Result: no binding (tested: titration 50 uM-100 pM)

Does B2 bind?
Result: no binding (tested: titration 50 uM-100 pM)

Does B3 bind?
Result: no binding (tested: titration 50 uM-100 pM)

Does B4 bind?
Result: no binding (tested: titration 50 uM-100 pM)

Does B5 bind?
Result: no binding (tested: titration 50 uM-100 pM)

Does B6 bind?
Result: no binding (tested: titration 50 uM-100 pM)

Does B7 bind?
Result: no binding (tested: titration 50 uM-100 pM)

Does B8 bind?
Result: no binding (tested: titration 50 uM-100 pM)

Does B9 bind?
Result: no binding (tested: titration 50 uM-100 pM)

Does B10 bind?
Result: no binding (tested: titration 50 uM-100 pM)

Does B11 bind?
Result: no binding (tested: titration 50 uM-100 pM)

Each binder was assayed against S. aureus delta toxin (Staphylococcus aureus, UniProt P0C1V1 1-26) (assay: ELISA, plate coated with toxin component).
Protocol: as §1

Does B1 bind?
Result: no binding (tested: titration 50 uM-100 pM)

Does B2 bind?
Result: no binding (tested: titration 50 uM-100 pM)

Does B3 bind?
Result: no binding (tested: titration 50 uM-100 pM)

Does B4 bind?
Result: no binding (tested: titration 50 uM-100 pM)

Does B5 bind?
Result: no binding (tested: titration 50 uM-100 pM)

Does B6 bind?
Result: no binding (tested: titration 50 uM-100 pM)

Does B12 bind?
Result: no binding (tested: titration 50 uM-100 pM)

Does B7 bind?
Result: no binding (tested: titration 50 uM-100 pM)

Does B8 bind?
Result: no binding (tested: titration 50 uM-100 pM)

Does B9 bind?
Result: no binding (tested: titration 50 uM-100 pM)

Does B10 bind?
Result: no binding (tested: titration 50 uM-100 pM)

Does B11 bind?
Result: no binding (tested: titration 50 uM-100 pM)
